The supplement of paper PMC7877785
± gives the uncertainty stated by the source.

Experiment: self-splicing fitness, log relative to wild type (ln ratio); higher = more splicing; Tetrahymena group I intron in knt gene, E. coli kanamycin selection, DiMSum; sequences stand for … in CUCUCU…GGAGGGAAAAGUUAUCAGGCAUGCACCUGGUAGCUAGUCUUUAAACCAAUAGAUUGCAUCGGUUUAAAAGGCAAGACCGUCAAAUUGCGGGAAAGGGGUCAACAGCCGUUCAGUACCAAGUCUCAGGGGAAACUUUGAGAUGGCCUUGCAAAGGGUAUGGUAAUAAGCUGACGGACAUGGUCCUAACCACGCAGCCAAGUCCUAAGUCAACAGAUCUUCUGUUGAUAUGGAUGCAGUUCACAGACUAAAUGUCGGUCGGGGAAGAUGUAUUCUUCUCAUAAGAUAUAGUCGGACCUCUCCUUAAUGGGAGCUAGCGGAUGAAGUGAUGCAACACUGGAGCCGCUGGGAACUAAUUUGUAUGCGAAAGUAUAUUGAUUAGUUUUGGAGUACUCGUGGUCG
Summary of the method: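 DiMSum derived fitness as the error-weighted combination of fold changes across replicates, kanamycin versus no kanamycin, normalised to wild type. E. coli BL21(DE3) held the library, which randomised all eight P1ex-region intron nucleotides within the knt kanamycin-resistance gene on pET-22b(+). Six replicate transformations grew overnight at 37°C or 30°C on LB agar with or without 25 μg/mL kanamycin, also containing 100 μg/mL carbenicillin, 50 μM IPTG and 0.2% rhamnose, and pooled colonies were amplicon-sequenced on an Illumina HiSeq 2500.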

Row | Sequence | self-splicing fitness (ln) (30 °C) | self-splicing fitness (ln) (37 °C)
1 | GACCAGCAAUAUUACGGAAC | -0.88 ± 0.098 | -0.504 ± 0.11
2 | GACCAGCAAUAUUACGGCGC | -0.331 ± 0.09 | 0.162 ± 0.1
3 | GACCAGCAAUAUUACGGCUC | -0.856 ± 0.13 | 0.658 ± 0.15
4 | GACCAGCAAUAUUACGGGGC | -2.78 ± 0.18 | -2.14 ± 0.15
5 | GACCAGCAAUAUUACGGUAA | 0.0402 ± 0.06 | -0.0565 ± 0.071
6 | GACCAGCAAUAUUACGGUGA | -0.339 ± 0.057 | -0.154 ± 0.081
7 | GACCAGCAAUAUUACGUAUU | -0.471 ± 0.049 | -0.139 ± 0.062
8 | GACCAGCAAUAUUACGUCCU | -1.86 ± 0.1 | 0.317 ± 0.11
9 | GACGAGCAAUAUUACGAAAA |  | -3.07 ± 0.37
10 | GACGAGCAAUAUUACGACGA | -0.98 ± 0.11 | -1.07 ± 0.12
11 | GACGAGCAAUAUUACGACGG | -1.82 ± 0.28 | 
12 | GACGAGCAAUAUUACGAGGA | -2.28 ± 0.28 | -2.66 ± 0.36
13 | GACGAGCAAUAUUACGAGUA | -3.81 ± 0.39 | -3.26 ± 0.37
14 | GACGAGCAAUAUUACGAUGG | -3.7 ± 0.17 | -3 ± 0.2
15 | GACGAGCAAUAUUACGCAUA | -1.6 ± 0.21 | -0.87 ± 0.17
16 | GACGAGCAAUAUUACGCCAA | -3.23 ± 0.28 | -0.956 ± 0.3
17 | GACGAGCAAUAUUACGCGAC | -2.09 ± 0.26 | -1.04 ± 0.27
18 | GACGAGCAAUAUUACGCUCC | -2.9 ± 0.29 | -1.91 ± 0.34
19 | GACGAGCAAUAUUACGCUGC |  | -2.49 ± 0.49
20 | GACGAGCAAUAUUACGGAUU |  | -2.03 ± 0.19
21 | GACGAGCAAUAUUACGGGCA | -1.58 ± 0.18 | -2.56 ± 0.29
22 | GACGAGCAAUAUUACGGGUA | -3.66 ± 0.2 | -2.94 ± 0.2
23 | GACGAGCAAUAUUACGGUCA | -2.22 ± 0.15 | -0.552 ± 0.15
24 | GACGAGCAAUAUUACGGUUU | -2.28 ± 0.11 | -1.87 ± 0.14
25 | GACGAGCAAUAUUACGUACA | -3.04 ± 0.27 | -2.26 ± 0.2

Row | Sequence | self-splicing fitness (ln) (30 °C) | self-splicing fitness (ln) (37 °C)
26 | GACGAGCAAUAUUACGUAUC |  | -2.42 ± 0.35
27 | GACGAGCAAUAUUACGUGAG | -2.7 ± 0.16 | -2.62 ± 0.19
28 | GACGAGCAAUAUUACGUGAU | -3.53 ± 0.17 | -2.6 ± 0.16
29 | GACGAGCAAUAUUACGUGCG | -2.7 ± 0.17 | -0.259 ± 0.11
30 | GACGAGCAAUAUUACGUGUC |  | -2.74 ± 0.28
31 | GACGAGCAAUAUUACGUUCA | -1.67 ± 0.19 | -0.881 ± 0.16
32 | GACUAGCAAUAUUACGACAA | -0.896 ± 0.063 | -0.0215 ± 0.069
33 | GACUAGCAAUAUUACGACAC | -0.0525 ± 0.075 | -0.0737 ± 0.093
34 | GACUAGCAAUAUUACGACCC | 0.42 ± 0.14 | 0.392 ± 0.18
35 | GACUAGCAAUAUUACGAGUG | -0.94 ± 0.078 | -0.316 ± 0.098
36 | GACUAGCAAUAUUACGAUUG | -2.2 ± 0.087 | -2.14 ± 0.15
37 | GACUAGCAAUAUUACGCAGG | -3.04 ± 0.17 | -2.17 ± 0.12
38 | GACUAGCAAUAUUACGCAUU | -2.42 ± 0.14 | -1.63 ± 0.13
39 | GACUAGCAAUAUUACGCUAA | -1.08 ± 0.12 | -0.983 ± 0.13
40 | GACUAGCAAUAUUACGCUCA | -0.407 ± 0.1 | -0.306 ± 0.11
41 | GACUAGCAAUAUUACGCUUU | -2.59 ± 0.19 | -1.66 ± 0.16
42 | GACUAGCAAUAUUACGGACA | -0.472 ± 0.1 | -0.0878 ± 0.11
43 | GACUAGCAAUAUUACGGCCU | -1 ± 0.11 | -0.85 ± 0.16
44 | GACUAGCAAUAUUACGGGCU | -2.18 ± 0.15 | -1.64 ± 0.15
45 | GACUAGCAAUAUUACGGUCU | -3.36 ± 0.22 | -3.21 ± 0.33
46 | GACUAGCAAUAUUACGGUUA | -0.116 ± 0.083 | 0.109 ± 0.085
47 | GACUAGCAAUAUUACGUCCC | -1.82 ± 0.23 | -0.833 ± 0.22
48 | GACUAGCAAUAUUACGUGAA | -0.567 ± 0.056 | -0.302 ± 0.083
49 | GACUAGCAAUAUUACGUGCA | -0.898 ± 0.059 | -0.504 ± 0.068
50 | GACUAGCAAUAUUACGUUUA | -1.05 ± 0.094 | -0.651 ± 0.11
